Assay results: paper PMC9482650, “Quantitative fragmentomics allow affinity mapping of interactomes” (Nature Communications, 2022)
One block for each binder: values may come before it.

Key:
Test in all cases: holdup assay
Parameters in all cases: key: below the threshold = too weak to quantify, mostly under pKd 3.1 to 4
PICK1, Q9NRD5 = biological target: PICK1, Q9NRD5
GRIP1_7, Q9Y3R0 = biological target: T1, GRIP1_7, Q9Y3R0
T1 sequence (Q9Y3R0 999-1096, limits assumed, looked up): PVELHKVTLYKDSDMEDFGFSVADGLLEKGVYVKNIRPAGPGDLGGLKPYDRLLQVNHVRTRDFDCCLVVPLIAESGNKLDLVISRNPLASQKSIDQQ

SHANK1, Q9Y566 = biological target: T2, SHANK1, Q9Y566
T2 sequence (Q9Y566 658-767, limits assumed, looked up): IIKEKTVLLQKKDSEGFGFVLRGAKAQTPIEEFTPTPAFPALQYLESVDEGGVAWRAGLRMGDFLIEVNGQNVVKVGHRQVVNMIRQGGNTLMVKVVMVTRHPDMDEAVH

PTPN13_1, Q12923 = biological target: T3, PTPN13_1, Q12923
T3 sequence (Q12923 1088-1188, limits assumed, looked up): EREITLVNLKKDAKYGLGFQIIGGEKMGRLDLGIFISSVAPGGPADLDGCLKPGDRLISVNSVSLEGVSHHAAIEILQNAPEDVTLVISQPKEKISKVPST

SNX27, Q96L92 = biological target: SNX27, Q96L92
MAGI2_6, Q86UL8 = biological target: MAGI2_6, Q86UL8
Chain of MAGI2_6, Q86UL8 (Q86UL8 1141-1229): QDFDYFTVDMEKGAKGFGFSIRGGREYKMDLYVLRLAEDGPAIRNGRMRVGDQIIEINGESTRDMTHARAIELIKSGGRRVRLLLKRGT

DLG4_3, P78352 = biological target: DLG4_3, P78352
Chain of DLG4_3, P78352 (P78352 306-403): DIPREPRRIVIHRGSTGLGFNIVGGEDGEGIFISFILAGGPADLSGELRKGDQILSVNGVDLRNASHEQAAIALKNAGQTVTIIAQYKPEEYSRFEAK

PTPN3, P26045 = biological target: PTPN3, P26045
Chain of PTPN3, P26045 (P26045 505-587): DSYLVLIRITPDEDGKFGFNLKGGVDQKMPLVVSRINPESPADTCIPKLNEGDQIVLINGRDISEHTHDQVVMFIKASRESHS

Inadl_6, Q8NI35 = biological target: Inadl_6, Q8NI35
Chain of Inadl_6, Q8NI35 (Q8NI35 1058-1167): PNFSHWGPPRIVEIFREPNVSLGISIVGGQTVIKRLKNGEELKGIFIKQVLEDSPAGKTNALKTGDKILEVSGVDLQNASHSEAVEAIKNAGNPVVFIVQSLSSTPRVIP

MPDZ_10, O75970 = biological target: T4, MPDZ_10, O75970
T4 sequence (O75970 1624-1722, limits assumed, looked up): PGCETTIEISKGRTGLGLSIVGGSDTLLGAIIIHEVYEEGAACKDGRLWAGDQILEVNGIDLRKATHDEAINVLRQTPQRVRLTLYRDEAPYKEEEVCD

DLG5_1, Q8TDM6 = biological target: DLG5_1, Q8TDM6
Chain of DLG5_1, Q8TDM6 (Q8TDM6 617-713): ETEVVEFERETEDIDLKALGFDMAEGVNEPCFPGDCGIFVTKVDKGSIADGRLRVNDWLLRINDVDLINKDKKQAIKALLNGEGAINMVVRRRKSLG

FRMPD2_2, Q68DX3 = biological target: FRMPD2_2, Q68DX3
Chain of FRMPD2_2, Q68DX3 (Q68DX3 944-1038): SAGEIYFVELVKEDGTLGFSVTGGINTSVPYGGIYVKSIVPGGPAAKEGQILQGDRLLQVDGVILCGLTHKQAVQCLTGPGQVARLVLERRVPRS

SNTG1, Q9NSN8 = biological target: T5, SNTG1, Q9NSN8
T5 sequence (Q9NSN8 52-150, limits assumed, looked up): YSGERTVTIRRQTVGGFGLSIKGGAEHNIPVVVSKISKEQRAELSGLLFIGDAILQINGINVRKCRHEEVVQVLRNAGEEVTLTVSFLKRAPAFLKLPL

MAGI1_2, Q96QZ7 = biological target: MAGI1_2, Q96QZ7
Chain of MAGI1_2, Q96QZ7 (Q96QZ7 456-580): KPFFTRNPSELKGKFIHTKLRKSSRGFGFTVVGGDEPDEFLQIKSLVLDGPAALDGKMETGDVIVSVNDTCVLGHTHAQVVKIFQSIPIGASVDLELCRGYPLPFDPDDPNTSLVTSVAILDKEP

APBA1_2, Q02410 = biological target: T6, APBA1_2, Q02410
T6 sequence (Q02410 742-832, limits assumed, looked up): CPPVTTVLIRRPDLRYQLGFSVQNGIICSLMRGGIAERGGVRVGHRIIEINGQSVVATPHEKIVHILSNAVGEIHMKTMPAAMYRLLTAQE

MPP2, Q14168 = biological target: T7, MPP2, Q14168
T7 sequence (Q14168 180-250, limits assumed, looked up): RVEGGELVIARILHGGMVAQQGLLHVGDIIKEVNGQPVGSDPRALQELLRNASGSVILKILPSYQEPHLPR

RAPGEF6, Q8TEU7 = biological target: T8, RAPGEF6, Q8TEU7
T8 sequence (Q8TEU7 525-625, limits assumed, looked up): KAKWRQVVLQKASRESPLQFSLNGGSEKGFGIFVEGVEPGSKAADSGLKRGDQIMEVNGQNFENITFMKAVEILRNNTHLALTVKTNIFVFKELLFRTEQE

IL16_1, Q14005 = biological target: IL16_1, Q14005
Chain of IL16_1, Q14005 (Q14005 210-306): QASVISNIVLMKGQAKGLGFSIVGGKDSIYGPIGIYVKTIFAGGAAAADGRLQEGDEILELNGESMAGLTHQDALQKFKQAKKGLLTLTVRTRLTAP

MPP7, Q5T2T1 = biological target: T9, MPP7, Q5T2T1
T9 sequence (Q5T2T1 134-230, limits assumed, looked up): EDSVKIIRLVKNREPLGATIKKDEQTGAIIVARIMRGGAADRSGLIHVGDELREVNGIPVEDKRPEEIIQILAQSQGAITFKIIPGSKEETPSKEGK

LNX1_1, Q8TBB1 = biological target: LNX1_1, Q8TBB1
Chain of LNX1_1, Q8TBB1 (Q8TBB1 261-371): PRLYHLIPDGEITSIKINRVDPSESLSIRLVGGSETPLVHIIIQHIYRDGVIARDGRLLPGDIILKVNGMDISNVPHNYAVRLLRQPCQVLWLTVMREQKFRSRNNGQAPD

NHERF4_4, Q86UT5 = biological target: NHERF4_4, Q86UT5
Chain of NHERF4_4, Q86UT5 (Q86UT5 464-550): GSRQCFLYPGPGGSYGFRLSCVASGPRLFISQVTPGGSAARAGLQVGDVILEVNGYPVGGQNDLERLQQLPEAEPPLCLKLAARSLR

NHERF4_1, Q86UT5-2 = biological target: NHERF4_1, Q86UT5-2
Chain of NHERF4_1, Q86UT5-2 (Q86UT5 other isoform, or with tags, fused parts or gaps): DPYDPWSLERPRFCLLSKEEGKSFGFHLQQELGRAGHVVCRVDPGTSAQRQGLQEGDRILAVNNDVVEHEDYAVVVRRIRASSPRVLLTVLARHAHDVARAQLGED

Inadl_4, Q8NI35 = biological target: Inadl_4, Q8NI35
Chain of Inadl_4, Q8NI35 (Q8NI35 547-651): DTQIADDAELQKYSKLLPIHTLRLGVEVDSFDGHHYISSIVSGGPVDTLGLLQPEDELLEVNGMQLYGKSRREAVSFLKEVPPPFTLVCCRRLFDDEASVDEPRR

LIN7B, Q9HAP6 = biological target: T10, LIN7B, Q9HAP6
T10 sequence (Q9HAP6 88-185, limits assumed, looked up): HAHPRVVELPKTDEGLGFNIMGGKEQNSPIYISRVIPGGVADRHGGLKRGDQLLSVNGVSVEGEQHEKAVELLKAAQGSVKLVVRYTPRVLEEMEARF

SNTA1, Q13424 = biological target: T11, SNTA1, Q13424
T11 sequence (Q13424 82-180, limits assumed, looked up): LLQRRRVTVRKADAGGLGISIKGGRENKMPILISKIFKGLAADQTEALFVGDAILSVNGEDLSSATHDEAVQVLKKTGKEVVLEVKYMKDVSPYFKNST

NHERF3_3, Q5T2W1 = biological target: T12, NHERF3_3, Q5T2W1
T12 sequence (Q5T2W1 238-333, limits assumed, looked up): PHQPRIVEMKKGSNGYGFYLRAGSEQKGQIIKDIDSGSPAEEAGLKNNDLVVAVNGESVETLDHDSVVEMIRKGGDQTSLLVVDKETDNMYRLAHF

[1] = plain residues with an end cap or a label only (N-terminal biotin on a linker: ado-ado, ttds)
[2] = plain residues with an end cap or a label only (N-terminal biotin on a linker: ttds)
[3] = plain residues with an end cap or a label only (N-terminal biotin on a linker: ahx)

Chain of PICK1, Q9NRD5 (Q9NRD5 17-115): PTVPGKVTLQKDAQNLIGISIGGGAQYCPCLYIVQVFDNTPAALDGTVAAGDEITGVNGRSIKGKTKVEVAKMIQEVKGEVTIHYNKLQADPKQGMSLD

pKd (PICK1, Q9NRD5; [1]): below the threshold | pKd (GRIP1_7, Q9Y3R0; [1]): below the threshold | pKd (SHANK1, Q9Y566; [1]): below the threshold | pKd (PTPN13_1, Q12923; [1]): below the threshold | pKd (SNX27, Q96L92; [1]): below the threshold | pKd (MAGI2_6, Q86UL8; [1]): 4.35 | pKd (DLG4_3, P78352; [1]): below the threshold | pKd (PTPN3, P26045; [1]): 4.53 | pKd (Inadl_6, Q8NI35; [1]): below the threshold | pKd (MPDZ_10, O75970; [1]): below the threshold | pKd (DLG5_1, Q8TDM6; [1]): below the threshold | pKd (FRMPD2_2, Q68DX3; [1]): 3.52 | pKd (SNTG1, Q9NSN8; [1]): 4.89 | pKd (MAGI1_2, Q96QZ7; [1]): below the threshold | pKd (APBA1_2, Q02410; [1]): 3.5 | pKd (MPP2, Q14168; [1]): below the threshold | pKd (RAPGEF6, Q8TEU7; [1]): below the threshold | pKd (IL16_1, Q14005; [1]): below the threshold | pKd (MPP7, Q5T2T1; [1]): below the threshold | pKd (LNX1_1, Q8TBB1; [1]): 3.77 | pKd (NHERF4_4, Q86UT5; [1]): below the threshold | pKd (NHERF4_1, Q86UT5-2; [1]): below the threshold | pKd (Inadl_4, Q8NI35; [1]): below the threshold | pKd (LIN7B, Q9HAP6; [1]): below the threshold | pKd (SNTA1, Q13424; [1]): 4.7 | pKd (NHERF3_3, Q5T2W1; [1]): below the threshold
Binder: SNAKAVETDV [KCNA4, P22459]

pKd (PICK1, Q9NRD5; [2]): below the threshold | pKd (GRIP1_7, Q9Y3R0; [2]): below the threshold | pKd (SHANK1, Q9Y566; [2]): 5.38 | pKd (PTPN13_1, Q12923; [2]): below the threshold | pKd (SNX27, Q96L92; [2]): 5.92 | pKd (MAGI2_6, Q86UL8; [2]): 5.08 | pKd (DLG4_3, P78352; [2]): below the threshold | pKd (PTPN3, P26045; [2]): 5.4 | pKd (Inadl_6, Q8NI35; [2]): 5.69 | pKd (MPDZ_10, O75970; [2]): below the threshold | pKd (DLG5_1, Q8TDM6; [2]): below the threshold | pKd (FRMPD2_2, Q68DX3; [2]): 4.3 | pKd (SNTG1, Q9NSN8; [2]): 5.41 | pKd (MAGI1_2, Q96QZ7; [2]): below the threshold | pKd (APBA1_2, Q02410; [2]): 4.29 | pKd (MPP2, Q14168; [2]): below the threshold | pKd (RAPGEF6, Q8TEU7; [2]): below the threshold | pKd (IL16_1, Q14005; [2]): 4.29 | pKd (MPP7, Q5T2T1; [2]): 3.81 | pKd (LNX1_1, Q8TBB1; [2]): 3.97 | pKd (NHERF4_4, Q86UT5; [2]): 4.4 | pKd (NHERF4_1, Q86UT5-2; [2]): 4.71 | pKd (Inadl_4, Q8NI35; [2]): below the threshold | pKd (LIN7B, Q9HAP6; [2]): 4.92 | pKd (SNTA1, Q13424; [2]): 5.19 | pKd (NHERF3_3, Q5T2W1; [2]): below the threshold
Binder: SSIDLWETAL [SLC15A5, A6NIM6]

pKd (PICK1, Q9NRD5; [3]): below the threshold | pKd (GRIP1_7, Q9Y3R0; [3]): below the threshold | pKd (SHANK1, Q9Y566; [3]): below the threshold | pKd (PTPN13_1, Q12923; [3]): below the threshold | pKd (SNX27, Q96L92; [3]): below the threshold | pKd (MAGI2_6, Q86UL8; [3]): below the threshold | pKd (DLG4_3, P78352; [3]): below the threshold | pKd (PTPN3, P26045; [3]): below the threshold | pKd (Inadl_6, Q8NI35; [3]): below the threshold | pKd (MPDZ_10, O75970; [3]): below the threshold | pKd (DLG5_1, Q8TDM6; [3]): below the threshold | pKd (FRMPD2_2, Q68DX3; [3]): below the threshold | pKd (SNTG1, Q9NSN8; [3]): below the threshold | pKd (MAGI1_2, Q96QZ7; [3]): below the threshold | pKd (APBA1_2, Q02410; [3]): 3.48 | pKd (MPP2, Q14168; [3]): below the threshold | pKd (RAPGEF6, Q8TEU7; [3]): below the threshold | pKd (IL16_1, Q14005; [3]): below the threshold | pKd (MPP7, Q5T2T1; [3]): below the threshold | pKd (LNX1_1, Q8TBB1; [3]): below the threshold | pKd (NHERF4_4, Q86UT5; [3]): below the threshold | pKd (NHERF4_1, Q86UT5-2; [3]): below the threshold | pKd (Inadl_4, Q8NI35; [3]): below the threshold | pKd (LIN7B, Q9HAP6; [3]): below the threshold | pKd (SNTA1, Q13424; [3]): below the threshold | pKd (NHERF3_3, Q5T2W1; [3]): below the threshold
Binder: SKKNELFSNL [NHERF1, O14745]
